Data taken from patent US20260103529A1 (CONFO THERAPEUTICS N V, published 2026).

Experiments:
Test in all cases: flow cytometry on HEK293T cells transiently expressing Flag-tagged receptor; receptor presence confirmed by anti-Flag detection
[1] = molecular target: T1, human MC1R (melanocortin 1 receptor) (human, UniProt Q01726 1-317)
T1 construct: whole, on cells; Flag-tagged in flow cytometry; transiently expressed in HEK293T/HEK293 cells; also called hMC1R

[2] = molecular target: T2, human MC5R (melanocortin 5 receptor) (human, UniProt P33032 1-325)
T2 construct: whole, on cells; Flag-tagged in flow cytometry; transiently expressed in HEK293T/HEK293 cells
T2 sequence (P33032 whole entry): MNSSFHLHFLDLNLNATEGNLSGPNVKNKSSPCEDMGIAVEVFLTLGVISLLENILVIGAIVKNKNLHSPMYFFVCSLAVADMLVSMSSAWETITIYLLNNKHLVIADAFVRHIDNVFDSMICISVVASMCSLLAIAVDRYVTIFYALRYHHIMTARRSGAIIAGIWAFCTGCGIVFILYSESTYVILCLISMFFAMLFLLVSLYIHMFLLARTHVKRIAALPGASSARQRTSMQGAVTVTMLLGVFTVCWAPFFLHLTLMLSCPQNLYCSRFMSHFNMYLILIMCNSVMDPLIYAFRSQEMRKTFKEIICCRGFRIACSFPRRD

[3] = molecular target: T3, human MC2R (melanocortin 2 receptor) (human, UniProt Q01718 1-297)
T3 construct: whole, on cells; Flag-tagged, transiently expressed in HEK293T cells
T3 sequence (Q01718 whole entry): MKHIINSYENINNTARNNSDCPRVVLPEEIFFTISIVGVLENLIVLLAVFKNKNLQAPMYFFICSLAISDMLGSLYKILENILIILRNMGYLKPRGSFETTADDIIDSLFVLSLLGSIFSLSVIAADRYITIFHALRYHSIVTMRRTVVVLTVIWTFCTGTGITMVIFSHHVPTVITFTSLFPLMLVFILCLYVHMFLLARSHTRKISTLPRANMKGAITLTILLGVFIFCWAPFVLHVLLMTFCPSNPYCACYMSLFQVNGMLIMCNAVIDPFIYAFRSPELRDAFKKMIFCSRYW

[4] = molecular target: T4, human MC3R (melanocortin 3 receptor) (human, UniProt P41968 1-323)
T4 construct: whole, on cells; Flag-tagged in flow cytometry; transiently expressed in HEK293T/HEK293 cells
T4 sequence (P41968 whole entry): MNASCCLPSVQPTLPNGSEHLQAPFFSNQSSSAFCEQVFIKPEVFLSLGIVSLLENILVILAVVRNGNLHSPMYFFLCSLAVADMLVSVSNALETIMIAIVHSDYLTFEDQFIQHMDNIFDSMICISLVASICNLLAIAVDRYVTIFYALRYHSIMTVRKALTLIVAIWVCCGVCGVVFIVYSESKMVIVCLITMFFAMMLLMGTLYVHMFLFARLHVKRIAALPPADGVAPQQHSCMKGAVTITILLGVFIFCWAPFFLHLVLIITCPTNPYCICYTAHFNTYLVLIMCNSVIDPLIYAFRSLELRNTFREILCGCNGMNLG

Measured: binding result

T1 sequence (Q01726 whole entry): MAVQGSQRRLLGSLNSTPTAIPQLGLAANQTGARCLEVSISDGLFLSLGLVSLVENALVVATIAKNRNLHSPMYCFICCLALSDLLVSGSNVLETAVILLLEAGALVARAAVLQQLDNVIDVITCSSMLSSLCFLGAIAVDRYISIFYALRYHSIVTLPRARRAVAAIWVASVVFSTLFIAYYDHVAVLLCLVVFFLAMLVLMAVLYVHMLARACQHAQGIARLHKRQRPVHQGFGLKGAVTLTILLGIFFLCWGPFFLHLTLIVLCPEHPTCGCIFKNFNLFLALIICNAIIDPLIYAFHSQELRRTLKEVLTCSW

B1: pN0162 (VHH)
VHH: QVQLVESGGGLVQPGGSLRLSCAASGSAFSLNVMGWYRQTPGNQRALVAEITKDGSTNYADSAKGRFTISRDNAKNTVHLQMDSLKPEDTAVYYCKARTGRIVRPLDYWGQGTQVTVSS
notes: Agonist nanobody from llama immunisation, purified from E. coli; also called pN162
no binding (tested: 1 µM): [1] | [2] | [3] | [4]
